The target of assay [1] is PI3Kα-RBD, PIK3CA-RBD(157-289) (human) (UniProt P42336). The experiment in a line: ITC; RAS GTPase (GMPPNP-bound, 300–500 μM) in the syringe, PI3K isoform or PI3Kα-RBD (30–50 μM) in the cell; 25 °C; 20 mM HEPES pH 7.4, 150 mM NaCl, 5 mM MgCl2, 1 mM TCEP; one set of sites; two replicates. Background: ITC needs no label: the signal is the heat of the interaction.
Assay [2] addresses PI3Kα: p110α(2-1068) W1057A/I1058A/F1059A + p85(322-600) (human) (UniProt P42336). The experiment in a line: ITC; GMPPNP-bound RAS (300–500 μM) in the syringe, PI3K isoform or PI3Kα-RBD (30–50 μM) in the cell; 25 °C; 20 mM HEPES pH 7.4, 150 mM NaCl, 5 mM MgCl2, 1 mM TCEP; one set of sites; duplicates.
Assay [3] deals with PI3Kα-RBD, PIK3CA-RBD(157-289) (human) (UniProt P42336). The assay is described as above.
Assay [4] has as its target p110α-RBD(157-289) T208A (human) (UniProt P42336). The assay is described as above.
Assay [5] addresses p110α-RBD(157-289) K206A (human) (UniProt P42336). The assay is described as above.
Assay [6] concerns the target p110α-RBD(157-289) K210A (human) (UniProt P42336). The assay is described as above.
Assay [7] concerns the target PI3Kδ: p110δ(1-1044) + p85(322-600) (human) (UniProt O00329). Described as above.
The next assay has as its target PI3Kα-RBD-K210A (human) (UniProt P42336). The experiment in a line: ITC; RAS GTPase (GMPPNP-bound, 300–500 μM) in the syringe, PI3K isoform or PI3Kα-RBD (30–50 μM) in the cell; 25 °C; 20 mM HEPES pH 7.4, 150 mM NaCl, 5 mM MgCl2, 1 mM TCEP; one set of sites; two replicates.
A further assay deals with PI3Kα-RBD-Q205A (human) (UniProt P42336). The assay is described as above.
The next assay concerns the target PI3Kα-RBD-T208A (human) (UniProt P42336). The assay is described as above.
The next assay addresses PI3Kα-RBD-K206A (human) (UniProt P42336). Described as above.
The next assay addresses PI3Kα-RBD-S231A (human) (UniProt P42336). The assay is described as above.

pKd: −log10 of the molar value.

Data on 19 substances can be found in paper PMC11718114.

As a reminder, the pKd is the Kd on a negative log10 scale, so that one unit is a factor of ten. A word on the stoichiometry N: it is a count of units in the complex or per binding partner.

“RRAS2-R63A, GMPPNP-bound (from UniProt P62070 1-179) (domain or fragment)”: in assay [1], the pKd is 5.19 and the stoichiometry N came to 0.9 sites.

As to “RRAS2-F75A, GMPPNP-bound (from UniProt P62070 1-179) (domain or fragment)”, in assay [1], the pKd was 4.67 and the stoichiometry N turned out to be 1.11 sites.

With “RRAS2-D42E, GMPPNP-bound (from UniProt P62070 1-179) (domain or fragment)”, in assay [1], the pKd was 4.79 and the stoichiometry N amounted to 0.89 sites.

Turning to “MRAS (wild type) (from UniProt O14807 1-178) (domain or fragment)”, in [2], the pKd was 5.28 and the dH was -17 kcal/mol.

In [1], “RRAS2-Q72H, GMPPNP-bound (from UniProt P62070 1-179) (domain or fragment)” had a pKd of 4.85 and a stoichiometry N of 0.85 sites.

With “RRAS2-G23D, GMPPNP-bound (from UniProt P62070 1-179) (domain or fragment)”, in assay [1], the pKd is 5.19 and the stoichiometry N was found to be 0.75 sites.

In [1], “RRAS2-T52R, GMPPNP-bound (from UniProt P62070 1-179) (domain or fragment)” gave a pKd of 4.55 and a stoichiometry N of 1.01 sites.

In assay [1], “RRAS2-D42A, GMPPNP-bound (from UniProt P62070 1-179) (domain or fragment)” had a pKd of 4.17 and a stoichiometry N of 1.2 sites.

Take “RRAS2-E74A, GMPPNP-bound (from UniProt P62070 1-179) (domain or fragment)”: in assay [1], the pKd is 4.91 and the stoichiometry N is 0.83 sites.

For “RRAS2-D44A, GMPPNP-bound (from UniProt P62070 1-179) (domain or fragment)”, in assay [1], the pKd is 4.55 and the stoichiometry N worked out at 0.81 sites.

For the substance “RRAS2-E48A, GMPPNP-bound (from UniProt P62070 1-179) (domain or fragment)”, in assay [1], the pKd was 4.49 and the stoichiometry N amounted to 0.92 sites.

Consider “RRAS2 T52R (from UniProt P62070 1-179) (domain or fragment)”, for which the fold reduction in binding affinity against wild-type RRAS2 in [3] worked out at 7 fold.

For “RRAS2 (wild type) (from UniProt P62070 1-179) (domain or fragment)”, the fold decrease in affinity against wild-type p110α-RBD in [4] and in assay [6] was 5 fold throughout. This substance returned a fold reduction in affinity against wild-type p110α-RBD in [5] of 15 fold. Also, the pKd in assay [2] was 5.41; in assay [7], 4.85. Also, the dH in [2] is -17 kcal/mol.

In assay [1], “RRAS2-M78A, GMPPNP-bound (from UniProt P62070 1-179) (domain or fragment)” gave a pKd of 3.87 and a stoichiometry N of 1.2 sites.

In assay [1], “RRAS2-Q72L, GMPPNP-bound (from UniProt P62070 1-179) (domain or fragment)” gave a pKd of 5.07 and a stoichiometry N of 0.88 sites.

In assay [1], “RRAS2-Y38F, GMPPNP-bound (from UniProt P62070 1-179) (domain or fragment)” gave a pKd of 5.37 and a stoichiometry N of 0.92 sites.

As for “RRAS2, GMPPNP-bound (from UniProt P62070 1-179) (domain or fragment)”, the pKd is 4.38 with PI3Kα-RBD-K210A (human); 5.09 with PI3Kα-RBD-Q205A (human); 4.35 with PI3Kα-RBD-T208A (human); 3.97 in the assay with PI3Kα-RBD-K206A (human); 5.08 with PI3Kα-RBD-S231A (human). Besides, the stoichiometry N with PI3Kα-RBD-K210A (human) amounted to 0.81 sites; with PI3Kα-RBD-Q205A (human) it was 0.86 sites; with PI3Kα-RBD-T208A (human), 0.9 sites; with PI3Kα-RBD-K206A (human), 0.92 sites; in the assay with PI3Kα-RBD-S231A (human) it was 0.88 sites.

For the substance “RRAS2-G23V, GMPPNP-bound (from UniProt P62070 1-179) (domain or fragment)”, in assay [1], the pKd was 4.89 and the stoichiometry N was found to be 0.91 sites.

In the assay with PI3Kα-RBD-T208A (human), “MRAS, GMPPNP-bound (from UniProt O14807 1-178) (domain or fragment)” gave a pKd of 4.71 and a stoichiometry N of 0.93 sites.
